{"source": "patent US20230121197A1", "about": "“ANTIBODIES SPECIFICALLY BINDING THE CARBOXYMETHYLATED CATALYTIC SUBUNIT OF PROTEIN PHOSPHATASE 2A” (Medizinische Universität Wien, priority 2020, published 2023)", "molecules": {"B1": {"name": "7C10-C5: α-carboxymethylation specific mouse monoclonal IgG1 antibody from single clone hybridoma 7C10-C5 (DSM ACC3350) (antibody)", "heavy": "MYRMQLLSCIALSLALVTNSDVQLQESGPGLVKPSQSLSLTCSVTGYSITSGYYWNWIRQFPGNKLEWMGYISYDGSNNYNPSLKNRISITRDTSKNQFFLKLNSVTTEDTATYYCAGRFAYWGQGTLVTVSAAKTTAPSVYPLAPVCGDTTGSSVTLGCLVKGYFPEPVTLTWNSGSLSSGVHTFPAVLQSDLYTLSSSVTVTSSTWPSQSITCNVAHPASSTKVDKKIEPRGPTIKPCPPCKCPAPNLLGGPSVFIFPPKIKDVLMISLSPIVTCVVVDVSEDDPDVQISWFVNNVEVHTAQTQTHREDYNSTLRVVSALPIQHQDWMSGKEFKCKVNNKDLPAPIERTISKPKGSVRAPQVYVLPPPEEEMTKKQVTLTCMVTDFMPEDIYVEWTNNGKTELNYKNTEPVLDSDGSYFMYSKLRVEKKNWVERNSYSCSVVHEGLHNHHTTKSFSRTPGK", "light": "MDMRVPAQLLGLLLLWLSGARCDVLMTQTPLSLPVSLGDQASISCRSSQSIVHSNGNTYLEWYLQKPGQSPKLLIYKVSNRFSGVPDRFSGSGSGTDFTLKINRVEAEDLGVYYCFQGSHVPWTFGGGTKLEIKADAAPTVSIFPPSSEQLTSGGASVVCFLNNFYPKDINVKWKIDGSERQNGVLNSWTDQDSKDSTYSMSSTLTLTKDEYERHNSYTCEATHKTSTSPIVKSFNRNEC", "modifications": "Amino acid sequence of the recombinant 7C10-C5 heavy chain; Amino acid sequence of the recombinant 7C10-C5 light chain"}}, "target": "PP2Ac C-terminal peptides (L309, meL309, amL309, pT304, pY307) (Homo sapiens, UniProt P67775)", "experiment": "ELISA with PP2Ac C-terminal undecapeptides", "type": "binding", "experimental": "7C10-C5 was tested for its specificity to the unmodified, methylated or amidated carboxyl group of Leu^309 at the carboxy-terminus of PP2Ac by ELISA with 3 different undecapeptides (11-mers) (FIG. 4). Methylated and amidated peptides were compared because at physiological pH the α-carboxyl-group of Leu^309 is negatively charged and either the methylation or amidation of the α-carboxyl-group neutralizes its negative charge. This allowed the inventors to discriminate between a specificity for the amidated charge-neutralized PP2Ac C-terminus or the carboxymethylated charge-neutralized PP2Ac C-terminus.\nSpecifically, flat-bottom Nunc-Immuno Medisorp 96-well ELISA plates (Thermo; 467320) were coated o/n at 4° C. with 50 μl of either a peptide of the sequence ac-HVTRRTPDYFL-OH (L309; unmodified) (SEQ ID NO:18) at a concentration of 2 μg/ml, a peptide of the sequence ac-HVTRRTPDYFL-CH3 (meL309; methylated) (SEQ ID NO:18) at a concentration of 2 μg/ml in TBS (137 mM NaCl (AppliChem, #131659, 2.7 mM KCl (AppliChem, #131494), 24.8 mM Tris (AppliChem, #A1086), pH 7.4 with HCl) or a peptide of the sequence ac-HVTRRTPDYFL-NH2 (amL309; amidated) (SEQ ID NO:18) at a concentration of 2 μg/ml in TBS. Of note, the “ac-” in the peptides described here and in other Examples refers to an acetylated N-terminus. Said acetylation neutralizes the positive charge at the N-terminus, and the free charged N-terminus is thereby removed.\nThen, the wells were washed once with TBS, blocked with 200 μl of 2% bovine serum albumin (BSA) (Sigma, A9647) in TBS for 1 hour at RT and washed again once with TBS. […] Bound antibodies were detected colorimetrically by addition of 50 μl of 33 μg/ml […] (TMB) (Sigma, T2885) in 0.1 M sodium acetate pH 6.0 and 0.01% H2O2 (Sigma, H1009). The colorimetric reaction was stopped after 10 min by addition of 50 μl 0.5 M H2SO4, and measured at 450 nm and 560 nm with a Perkin Elmer VICTOR® Nivo™ microplate reader. The results from 560 nm read were subtracted from the 450 nm read. […]", "data": [{"molecule": "B1", "values": [{"measurement": "effect of concurrent Tyr307 phosphorylation on binding to carboxymethylated PP2Ac C-terminus", "result": "not significantly altered"}, {"measurement": "detection difference carboxymethylated+Thr304 phosphorylated versus carboxymethylated peptide", "setting": "at lower peptide concentrations (dilution series 8 μg/ml to 7.8125 ng/ml)", "result": 4, "unit": "fold"}, {"measurement": "signal intensity α-carboxymethylated PP2Ac peptide when Thr304 is phosphorylated versus not phosphorylated", "setting": "peptides at 2 μg/ml", "result": 1.6, "unit": "fold"}]}]}
